In patent publication US20230416378A1 (Boehringer Ingelheim, published 2023):

Assays:
mouse Nrp1 = target: T1, mouse Nrp1 (mouse, UniProt P97333 22-856, limits assumed); test: SPR, antibody captured on Protein A/G (GLM sensorchip), Nrp1 as analyte 0-100 nM, 1:1 Langmuir fit
T1 construct: also called mouse Nrp1A
Experimental: (§1) The running buffer for this experiment and all dilutions (except where stated) were done in PBS-T-EDTA with 0.01% Tween20 [100 ul of 100% Tween20 was added to 2L of PBS-T-EDTA to make final Tween 20 concentration of 0.01%]. The GLM sensorchip was normalized and pre-conditioned as per the manufacturer's recommendations. […] The sensorchip was deactivated with 1M ethanolamine HCl in the horizontal direction for 300 sec at a flowrate of 30 μl/min. The sensorchip was stabilized with 18 sec of 0.85% phosphoric acid at a flowrate of 100 μl/min 3 times horizontally and 3 times vertically.
(§2) The baseline was stabilized by injecting PBS-T-EDTA for 60 sec at a flowrate of 100 μl/min horizontally with dissociation of 120 sec. The analyte was injected horizontally over the captured antibody for 300 sec at a flowrate of 30 μl/min and a dissociation for 1800 sec. The concentrations of the analytes were 0 nM, 6.25 nM, 12.5 nM, 25 nM, 50 nM, and 100 nM. The surface was regenerated by injecting 0.85% phosphoric acid for 18 sec at a flowrate of 100 μl/min one time horizontally and one time vertically. PBS-T-EDTA was injected for 60 sec at a flowrate of 100 μl/min one time vertically and one time horizontally.
(§3) The interspot (interactions with sensor surface) and blank (PBS-T-EDTA with 0.01% Tween20 or 0 nM analyte) were subtracted from the raw data.

cyno Nrp1 = target: T2, cyno Nrp1 (cyno, UniProt A0A2K5V5E7 24-858); test: as above
T2 construct: also called cyno-Nrp1A
T2 sequence (A0A2K5V5E7 entry or part of it): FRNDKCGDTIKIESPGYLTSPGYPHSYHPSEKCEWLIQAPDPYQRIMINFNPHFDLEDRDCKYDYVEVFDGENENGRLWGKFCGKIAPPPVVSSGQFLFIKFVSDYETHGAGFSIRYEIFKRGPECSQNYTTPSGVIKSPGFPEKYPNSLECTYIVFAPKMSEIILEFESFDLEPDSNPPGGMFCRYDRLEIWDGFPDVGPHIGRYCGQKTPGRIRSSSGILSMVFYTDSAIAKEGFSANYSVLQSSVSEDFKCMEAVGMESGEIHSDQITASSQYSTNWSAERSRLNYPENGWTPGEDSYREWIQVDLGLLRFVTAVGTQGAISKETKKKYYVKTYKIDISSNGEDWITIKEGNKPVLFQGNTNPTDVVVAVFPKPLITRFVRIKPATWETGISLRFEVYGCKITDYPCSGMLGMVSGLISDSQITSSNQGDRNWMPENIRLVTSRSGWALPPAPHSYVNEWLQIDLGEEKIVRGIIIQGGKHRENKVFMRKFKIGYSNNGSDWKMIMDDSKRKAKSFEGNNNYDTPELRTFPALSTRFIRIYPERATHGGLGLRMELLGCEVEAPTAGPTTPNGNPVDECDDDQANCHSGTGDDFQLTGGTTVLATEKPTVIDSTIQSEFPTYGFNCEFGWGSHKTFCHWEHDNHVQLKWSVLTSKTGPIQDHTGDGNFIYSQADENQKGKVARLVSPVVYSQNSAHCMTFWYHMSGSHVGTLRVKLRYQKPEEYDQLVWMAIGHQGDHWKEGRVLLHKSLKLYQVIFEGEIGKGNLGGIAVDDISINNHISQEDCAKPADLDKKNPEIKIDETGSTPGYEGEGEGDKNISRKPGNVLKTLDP
Experimental: as §1, §2, §3

rat Nrp1 = target: T3, rat Nrp1 (rat, UniProt Q9QWJ9 22-855, limits assumed); test: as above
T3 construct: also called rat Nrp1A
T3 sequence (Q9QWJ9 22-855 limits assumed): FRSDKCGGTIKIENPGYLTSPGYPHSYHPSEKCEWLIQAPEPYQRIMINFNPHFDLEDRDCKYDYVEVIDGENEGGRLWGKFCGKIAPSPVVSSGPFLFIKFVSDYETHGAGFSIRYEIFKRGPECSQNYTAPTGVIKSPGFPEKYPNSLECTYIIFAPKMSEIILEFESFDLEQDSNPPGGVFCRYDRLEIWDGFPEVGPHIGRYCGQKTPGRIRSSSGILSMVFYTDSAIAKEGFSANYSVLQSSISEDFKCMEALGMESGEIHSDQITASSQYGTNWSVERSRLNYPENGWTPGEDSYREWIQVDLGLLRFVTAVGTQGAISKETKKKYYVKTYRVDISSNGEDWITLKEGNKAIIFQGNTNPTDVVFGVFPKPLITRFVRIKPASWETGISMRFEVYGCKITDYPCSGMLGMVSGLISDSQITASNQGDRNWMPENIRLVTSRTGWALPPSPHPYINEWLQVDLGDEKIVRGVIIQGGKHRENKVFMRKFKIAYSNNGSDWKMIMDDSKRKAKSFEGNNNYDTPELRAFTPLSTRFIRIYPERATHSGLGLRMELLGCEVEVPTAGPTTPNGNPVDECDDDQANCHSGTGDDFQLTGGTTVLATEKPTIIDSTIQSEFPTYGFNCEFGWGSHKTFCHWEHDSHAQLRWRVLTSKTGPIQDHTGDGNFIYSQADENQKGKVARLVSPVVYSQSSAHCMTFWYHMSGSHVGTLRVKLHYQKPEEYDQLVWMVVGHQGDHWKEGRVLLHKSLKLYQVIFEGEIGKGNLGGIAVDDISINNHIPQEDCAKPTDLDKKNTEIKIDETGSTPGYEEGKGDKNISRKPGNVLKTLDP
Experimental: as §1, §2, §3

gerbil Nrp1 = target: T4, gerbil Nrp1 (gerbil); test: as above
T4 construct: also called gerbil Nrp1A
Experimental: as §1, §2, §3

[1] = target: T5, human Nrp1 (soluble analyte in SPR and BLI) (human, UniProt O14786 22-856, limits assumed); test: as above
T5 construct: also called hNrp1; Human Nrp1A
T5 sequence (O14786 22-856 V179A limits assumed): as the sequence (A0A2K5V5E7 entry or part of it) above, with R77H, L78F, W79R, Q96P, V258L, I341V, L396M, V460I, P578L counted along it
Experimental: as §1, §2, §3

[2] = target: T6, Neuropilin-1 (Nrp1) endogenously expressed on human endothelial cells (HRMEC, HUVEC) (human, UniProt O14786 22-923); test: cell-based or functional assay
T6 sequence (O14786 22-923 V179A limits assumed): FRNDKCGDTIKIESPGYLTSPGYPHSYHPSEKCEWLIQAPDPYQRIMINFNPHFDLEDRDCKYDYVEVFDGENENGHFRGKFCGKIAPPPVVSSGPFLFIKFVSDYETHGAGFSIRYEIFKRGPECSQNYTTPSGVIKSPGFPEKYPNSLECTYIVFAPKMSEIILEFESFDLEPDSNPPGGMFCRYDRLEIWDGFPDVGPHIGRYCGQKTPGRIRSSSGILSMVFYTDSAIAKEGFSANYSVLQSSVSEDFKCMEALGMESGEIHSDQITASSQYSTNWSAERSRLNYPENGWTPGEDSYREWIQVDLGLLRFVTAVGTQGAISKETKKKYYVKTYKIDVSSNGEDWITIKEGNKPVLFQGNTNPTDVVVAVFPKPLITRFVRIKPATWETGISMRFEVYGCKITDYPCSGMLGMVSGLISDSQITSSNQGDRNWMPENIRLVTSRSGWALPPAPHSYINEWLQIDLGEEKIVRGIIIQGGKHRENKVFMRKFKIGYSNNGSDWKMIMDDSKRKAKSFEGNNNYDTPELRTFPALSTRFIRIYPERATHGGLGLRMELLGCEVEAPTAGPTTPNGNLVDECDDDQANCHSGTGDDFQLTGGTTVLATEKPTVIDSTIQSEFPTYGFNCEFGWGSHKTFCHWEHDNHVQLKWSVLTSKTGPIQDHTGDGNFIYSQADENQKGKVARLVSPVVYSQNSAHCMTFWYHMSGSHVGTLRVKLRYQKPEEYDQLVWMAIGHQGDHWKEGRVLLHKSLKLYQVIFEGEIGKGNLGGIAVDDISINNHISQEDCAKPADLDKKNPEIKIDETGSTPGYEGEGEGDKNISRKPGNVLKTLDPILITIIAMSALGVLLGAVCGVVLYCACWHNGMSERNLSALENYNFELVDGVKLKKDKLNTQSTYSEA

[3] = target: T5, human Nrp1 (soluble analyte in SPR and …); test: SPR, antibody captured on Protein A/G (GLM sensorchip), human Nrp1A as analyte 0-100 nM, 1:1 Langmuir fit
Experimental: The running buffer for this experiment and all dilutions (except where stated) were done in PBS-T-EDTA with 0.01% Tween20 [100 ul of 100% Tween20 was added to 2L of PBS-T-EDTA to make final Tween 20 concentration of 0.01%]. The GLM sensorchip was normalized and pre-conditioned as per the manufacturer's recommendations. The sensorchip was activated with equal mixture of EDC/s-NHS in the horizontal direction for 300 sec at a flow rate of 30 μl/min and immobilized with Recombinant Protein NG (60 μg/ml in 10 mM acetate pH 4.5) in the horizontal direction for 300 sec at a flowrate of 30 μl/min. The sensorchip was deactivated with 1M ethanolamine HCl in the horizontal direction for 300 sec at a flowrate of 30 μl/min. The sensorchip was stabilized with 18 sec of 0.85% phosphoric acid at a flowrate of 100 μl/min 3 times horizontally and 3 times vertically.
Human Nrp1A was prepared in PBS-T-EDTA buffer at concentrations of 100, 50, 25, 12.5, 6.25, and 0 nM. A PBS-T-EDTA buffer injection was used as a double reference for the kinetic data analysis. Each of the human Nrp1A solutions and PBS-T-EDTA buffer were injected simultaneously over the 6 horizontal channels for 5 min at a flow rate of 40 μL/min followed by 30 min dissociation phase. The surfaces were regenerated by an 18 sec injection of 0.85% Phosphoric acid at a flow rate of 100 μL/min followed by an injection of sec PBS-T-EDTA at a flow rate of 100 μL/min. The interspot (interactions with sensor surface) and blank (PBS-T-EDTA with 0.01% Tween20 or 0 nM analyte) were subtracted from the raw data.

[4] = target: T6, Neuropilin-1 (Nrp1) endogenously …; test: cell-based or functional assay; remark: listed apart in the source

T1 sequence (P97333 22-856 limits assumed): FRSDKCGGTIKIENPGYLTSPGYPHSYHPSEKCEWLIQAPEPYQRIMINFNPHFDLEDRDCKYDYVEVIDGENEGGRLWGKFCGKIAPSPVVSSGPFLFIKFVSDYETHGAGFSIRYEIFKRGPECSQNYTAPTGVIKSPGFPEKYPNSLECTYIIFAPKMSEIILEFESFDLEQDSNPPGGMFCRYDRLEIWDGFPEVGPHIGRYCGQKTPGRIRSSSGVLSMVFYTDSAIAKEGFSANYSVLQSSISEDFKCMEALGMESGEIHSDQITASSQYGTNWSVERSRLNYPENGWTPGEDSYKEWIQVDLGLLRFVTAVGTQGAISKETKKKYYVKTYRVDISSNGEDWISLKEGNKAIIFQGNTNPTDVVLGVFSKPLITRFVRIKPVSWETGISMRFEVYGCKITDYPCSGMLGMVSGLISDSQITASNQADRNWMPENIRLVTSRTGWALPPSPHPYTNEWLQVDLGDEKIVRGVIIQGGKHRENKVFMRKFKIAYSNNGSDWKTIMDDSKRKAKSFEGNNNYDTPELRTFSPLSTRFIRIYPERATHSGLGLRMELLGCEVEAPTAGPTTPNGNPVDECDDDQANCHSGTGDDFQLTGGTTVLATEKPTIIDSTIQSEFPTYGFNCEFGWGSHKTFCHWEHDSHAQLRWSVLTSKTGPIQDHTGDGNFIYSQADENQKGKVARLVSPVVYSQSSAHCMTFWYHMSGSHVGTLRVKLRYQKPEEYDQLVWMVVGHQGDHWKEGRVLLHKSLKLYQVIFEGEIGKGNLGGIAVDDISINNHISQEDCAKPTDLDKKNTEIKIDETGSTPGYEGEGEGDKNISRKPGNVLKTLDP

Kd (mouse Nrp1) | Kd (cyno Nrp1) | Kd (rat Nrp1) | Kd (gerbil Nrp1) | Kd [1] | Collapse assay IC50 [2] | Kd [3] | VEGF induced cell integrity loss IC50 [4] | Binder
7.7 nM | 15.2 nM | 10.5 nM | 13.9 nM | 11.1 nM | 0.098 nM | 11.1 nM | 0.74 nM | Antibody of the invention (clone I), humanized anti-Nrp1A antibody (antibody, human IgG1, kappa, L234A L235A, V domains shown, also called exemplary antibody of the invention; lead compound) VH: EVQLLESGGGLVKPGGSLRLSCAASGFTFSSYAMSWVRQAPGKGLEWVSSISRTGYTYYAESVKGRFTISRDESKQTLYLQMQSLKTEDTAVYYCARVGTAFDYWGQGTLVTVSS VL: not shown
– | – | – | – | – | 0.056 nM | 11.3 nM | 12.6 nM | YW64.3, comparative antibody directed against Nrp1A (antibody, human IgG1, kappa, L234A L235A, V domains shown, Made for comparison after WO2007056470; also called anti-Nrp1A (YW64.3); Clone YW64.3) VH: EVQLVESGGGLVQPGGSLRLSCAASGFSFSSEPISWVRQAPGKGLEWVSSITGKNGYTYYADSVKGRFTISADTSKNTAYLQMNSLRAEDTAVYYCARWGKKVYGMDVWGQGTLVTVSS VL: DIQMTQSPSSLSASVGDRVTITCRASQSISSYLAWYQQKPGKAPKLLIYGASSRASGVPSRFSGSGSGTDFTLTISSLQPEDFATYYCQQYMSVPITFGQGTKVEIKR
– | – | – | – | – | – | 37.5 nM | 13.7 nM | YW107.4.87, comparative antibody directed against Nrp1B (antibody, human IgG1, kappa, V domains shown, Made for comparison after WO2007056470; also called anti-Nrp1B (YW107.4.87)) VH: EVQLVESGGGLVQPGGSLRLSCAASGFTFSSYAMSWVRQAPGKGLEWVSQISPAGGYTNYADSVKGRFTISADTSKNTAYLQMNSLRAEDTAVYYCARGELPYYRMSKVMDVWGQGTLVTVSS VL: DIQMTQSPSSLSASVGDRVTITCRASQYFSSYLAWYQQKPGKAPKLLIYGASSRASGVPSRFSGSGSGTDFTLTISSLQPEDFATYYCQQYLGSPPTFGQGTKVEIKR
